The text below walks through data of the nanobody polyreactivity screen of Harvey et al. (2022).

The series in a line: yeast display, Sf9 membrane polyspecificity reagent, FACS + sequencing; frameworks hold sequencing errors. In short, it runs like this: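 Galactose induction of a Saccharomyces cerevisiae BJ5465 synthetic nanobody display library ran 36–48 hours. The cells were then stained for 1 hour at 4 °C with 10% biotinylated, detergent-solubilized Sf9 membrane reagent, pulled down on streptavidin microbeads and FACS-sorted into low and high (top ~1%) gates on expression and reagent-binding fluorescence. Labels for polyreactivity follow the gate of origin.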
“QFQLVESGGGLDQAGGSLRLSCAASGRTFAYYALGWYRQAPGKESELVAAISSGGGSTYYADSVKGRFTISRDNAKYTFYLQMNSLKPEDTAVYYCAKERSSSRSGGTYYYWGQGTQVTVSS”: the “polyreactivity (PSR sort gate)” value is reported as “high polyreactivity”.

On to “QFQLVESGGGLDQAGGSLRLSCAASGRTFHAYAMGSYRQAHGKGRELVAAITRTGTTHYADSVKGRFTISRDNAKNTVFLQMNSLKPEDTAVYYCAAQHVRVAAQFVLQGYDYWGQGTQVTVSS”, for which the “polyreactivity (PSR sort gate)” value is on record as “low polyreactivity”.

As to “QFQLVESGGGLFQAGGSLRLSSAASGITFRYYAMGWYRQAPGKERELVAAITRSGSSTFYADSVKGRFTISLDNAKNTVYLQMNSLKPEDTAVYYCAAESVRAVFPDRYKYWGQGTQVTVSS”, the “polyreactivity (PSR sort gate)” value is “high polyreactivity”. Regarding “QFQLVESGGGLGQAGGSNRLSCAASGRIFNIYAMGCYRQSPGKERELVADITSGGTKYADSVKGRFTISRDNAKNTVYLQMNSLKPEDTAVDYCAAEYLYYGGVDYWGQGTQVTVSS”, the “polyreactivity (PSR sort gate)” value is “high polyreactivity”. The same measure for “QFQLVESGGGLLQAGGSLRLSCAASGRIFVPYVMGWYRQAPGKERELVASISDTDTSTYYADSVKGRFTISRDIAKNIVYLQMNSLKPEDTAVYYWNVDYWGQGTQVTVSS”: “low polyreactivity”; for “QFQLVESGGGLVHAGGSLRLSCAASGITFQWNSMGWYRQAPGKERELVAVISSDGRTYYADSVKGRFTISRDNAKYTVYLQMNSLKPEDTAVYYCNADRSVIHRGYIWQPGRNDYWGHGTQVTVSS”: “low polyreactivity”; for “QFQLVESGGGLVKAGGSLRLSCAASGLTNIYNARGWYRQAPGKERELVAAISGNGGDTYSADSVKGRFTISRDNAKNTVYLQMNSLKPEDTAVYYCAADYAYTPITWDEYWGQGTQVTVSS”: “low polyreactivity”. Under “QFQLVESGGGLVLAGGSLRLSCAASGRTYLVNAMGWYRQAPGKERELVAVITRGGSTNYADSVKGRFTISRDNAKNTDYLQMNSLKPEDTAVYYCAKQFSPYRSYGPVVRYDYWGLGTQVTVSS” stands “low polyreactivity”. Under “QFQLVESGGGLVQAGASLRLSCAASGRIFEIYAMGWYRQAPGKDRELVAASSWRGVSTYYADSVKGRFTITRDNAKKTVYLQMNSLKPEDTAVYYCNKDVDYFWYVEYDYWGHGTQVTVSS” stands “low polyreactivity”; under “QFQLVESGGGLVQAGGILRLSCDASGSILARYALGWYRQAPGKERVLVAAISSRGGSTYYADSVKGRFSISRDNAKNTVYLQMNSLKPEDTAVYYCASYVYLQVEYDYWGQGTQVTVSS”, “low polyreactivity”; under “QFQLVESGGGLVQAGGSIRSSCAASGIIFWGNAMGWYRQAPGKESELVATITGRGGSTYYADSVKGRFTISRDNAKNTVYLQMNSLKPEDTAVYYCNADSSRYYRALEYWGQGTQVTVSS”, “low polyreactivity”. Consider “QFQLVESGGGLVQAGGSLPLSCAASGRTFGGNTMGRYREAPGKERELVAAISRRGGSTYYADSVKGRFTISRDNAKNTVYLQMNSLKPEDTAVYYCNKDGPSYSSYDYWGQGTQVTVSS”, for which the “polyreactivity (PSR sort gate)” value is on record as “low polyreactivity”. Under “QFQLVESGGGLVQAGGSLRLICAASGITFYPNDMGWYRQSPGKERELVAAITTNDGDTYYADSVKGRFTISRDNAKNTVYLQMNSLKPEDTAVYYCAADSGSTSEYEYWGKGTQVTVSS” stands “low polyreactivity”; under “QFQLVESGGGLVQAGGSLRLICAASGLTFVYNDMGWYRQAHGKERELVAGITSGGSTYYADSVKGRFTISRDNAKNTVYLQMNSLKPEDTAVYYGAADGLSTDLFRPDSIVDYWGQGTQVTVSS”, “low polyreactivity”; under “QFQLVESGGGLVQAGGSLRLRCAASGQTFRYYAMGWYRQAPGKERELVAAITRRGSTYYADSVKGRFTISRDNAKNTVNLQINSLKPEDTAVYYCATVTGFHSSPLRDLDYWGQGTQVTVSS”, “high polyreactivity”.

Take “QFQLVESGGGLVQAGGSLRLSCAASGFIFTRYVMGWYRQAPGKERELVAAINWSGDSTYYADSVKGRFTISRDYAKNTVYLQLNSLKPEDTAVYYCNADYGWVDTYTNYDYWGQGTQVTVSS”: the “polyreactivity (PSR sort gate)” value is recorded as “low polyreactivity”. Under “QFQLVESGGGLVQAGGSLRLSCAASGFTFYYYAMGWYRQAPGKERELVAAISSSGSSTYYADSVKGRFTISRVNAKNTVYLQMNSLKREDTAVYYWNARRYEYLWGDYWGQGTQVTVSS” stands “high polyreactivity”. The same measure for “QFQLVESGGGLVQAGGSLRLSCAASGGTFGNNDMGWYRQAPGKERELVAAIRSAGTTYYADSVKGRFTISRDNAKNTVYLQMNSLKPEDTAVYYCNADTTGYWSYGFQYYGEDYWGQGTQVTVSS”: “low polyreactivity”; for “QFQLVESGGGLVQAGGSLRLSCAASGITFGSSAMGWYRQAPGKDRELVAAIDTSGDDTYYADSVKGRFTISRDNAKNTVYLQMNSLKPEDTAVYYCNAVSTASDEYDYWGQGSQVTVSS”: “low polyreactivity”; for “QFQLVESGGGLVQAGGSLRLSCAASGITFGWYAMGWYRKATGKETELVASISSSGSTNYADSVKGRFTISRDNAKNTVYLQMNSLKPEDTAVYYCNKDYLLRQYYIYVIEGDYWGQGTLVTVSS”: “low polyreactivity”.

For the sequence “QFQLVESGGGLVQAGGSLRLSCAASGLIFPKYAMGWYRQAPGKEREFVAAISGRGGTTYYADSVKGRFTISRDNAKNTVYLQMNSLKPEDTAVYYCAAGGPWANIYGNGYWGQGTQVTVSS”, the “polyreactivity (PSR sort gate)” value is “high polyreactivity”. Under “QFQLVESGGGLVQAGGSLRLSCAASGLTIDPNAMGWYRQAPGKERELVATITQTDGSTYYADSVKGRFTISRDNAKNTVYLQMNSLKPEDTAVYYCVGLVSRGSDYWGQGTQVTVSS” stands “low polyreactivity”; under “QFQLVESGGGLVQAGGSLRLSCAASGRIFGENARGWYSQATRKEREFVAVISISDASTYYADSVKGRFTITRDNAKNTVYLQMNSLKREDTAVDYCAADLTDFLYVASDYWGQGTQVTVSS”, “low polyreactivity”; under “QFQLVESGGGLVQAGGSLRLSCAASGRIFNYYAMGWYRQAPGKERELVAAISARGGSTYYADSVKGRFTISRDNAKNTVYLQMNSLKPEDTAVYYCAVSSGSYGYGYWGQGTQVTVSS”, “high polyreactivity”. The same measure for “QFQLVESGGGLVQAGGSLRLSCAASGRIFRSNAMVWYRQAPGKERELVAAISWSGGSTYYADSVKGRFTISRDNAKNTVYLQMNSLKPEDTAVFYCAARYRGSRYDYWGQGTQVTVSS”: “high polyreactivity”; for “QFQLVESGGGLVQAGGSLRLSCAASGRIFVPNAMGWYRQAPGKEREFVAAINSGGSTYYADSVKGRFTISRDNAKNTVYLQMNSMKPEDTAVYYCAAVDFSSGYYGRLARYYYWGQGTQVTVSS”: “high polyreactivity”; for “QFQLVESGGGLVQAGGSLRLSCAASGRILSIYAMGWYSQAPGKESEMVAGITGGGRTHSADSVKGRFTISRDNAKNTVYLQMYSLKPEDTAVYSCSSLWRYQYRSKLSYYYWGQGTQVTVSS”: “high polyreactivity”. The same measure for “QFQLVESGGGLVQAGGSLRLSCAASGRILYPNTMGWYRQAPGKEREVVAAISGSGSRTYYADSVKGRFTISRDNAKNNVYLQMNSLKPEDTAVYYCADRGDGTVGVSSPGKRRHYYWGQGTQVTVSS”: “high polyreactivity”; for “QFQLVESGGGLVQAGGSLRLSCAASGRIRDNARGWYRQAPGKERELVAAISSSGGSTYYADSVKGRFTISRDNAKNTVYLQMNSLKPEDTAVYYCNAVRTGKIFGSWGQGTQVTVSS”: “high polyreactivity”.

Consider “QFQLVESGGGLVQAGGSLRLSCAASGRIVGRNAMGWYRQAPGKERELVAAISGNGGSTYYADSVKGRFTISRDNAKINVYLQMNSLKPEDTAVYYCATKYFSRMDYWGKGTQVTVSS”, for which the “polyreactivity (PSR sort gate)” value was “high polyreactivity”.
